This series in a line: label from the status in PepcDB records.

For “MKNDLFTEIIGQHTAKLLLTEAIERNQIAPAYLFSSEVEGVGKGKIALAFANAILSRGSRSAMAKHLPPPKGDAQGTASAGESKHLDILQIKPTYTENTSQQKSVPAIRVEQMREVIEFLSTSAVEGKQKVVIIYEADMLNPTAANKLLKTLEEPKTGTFILISSYPQKLLPTIKSRCQIIPFQRLTDEEVISVLKDQQIEATEKILAISSGSPGQAIANIKMLASISQEITKELEVPPDDILKALSLSNSISSWNHQTQLWLLTYLQYNWWQKLKSTKLLAKFTQARKQLLHHVTPRSVWDSLLLP”, the protein production entry was “failed”. For “MKNEPIYNLLNSINSPDDLRRLEVDQLPEVCDELRQDIIKELSCNPGHFAASLGTVELTVALHYVYNTPYDRIVWDVGHQAYGHKILTGRREAFSTNRKLGGIRPFPSPEESEYDTFTCGHASNSISAALGMAVAAAKKGDDQRHVIAIIGDGSMSGGLAFEGLNNSSTTPNNLLIILNDNDMAIDRSVGGMKQYLFNLTTSNRYNQLRFKASRLLFKLGILNDERRKALIRFGNSLKSMAAQQQNIFEGMNIRYFGPIDGHDIKNLSRVLRDIKDLKGPKILHLHTIKGKGFAPAEKHATEWHAPGKFDPVTGERFVANTEGMPPLFQDVFGNTLVELAEANPRIVGVTPAMPSGCSMNILMSKMPKRAFDVGIAEGHAVTFSGGMAKDGLQPFCNIYSSFMQRAYDNIIHDVAIQNLPVVLCLDRAGLVGEDGPTHHGAFDMAYLRPIPNLTIASPMNEHELRRLMYTAQLPDKGPFVLRYPRGRGVLVDWKCPLEEIPVGKGRKLKDGKDIAVISIGPIGNKARSAIARAESESGRSIAHYDLRFLKPLDEELLHEVGRTFRHIVTIEDGTIQGGMGSAVLEFMADHEYTPTVKRIGIPDKFVQHGTVAELYQLCGMDEDSLTKELLKQCELLPDMSKIKELTN”, the protein production result is listed as “failed”. Consider “MKNETLHTQEDIIKMLDSLLRPAEPFWNEFYANREKDVPFFENVPDENLVSYIQKKRVSKGKVLELGCGPGRNAIYLANEGFDVTAVDVSIEGINWAKERALAKGVEIEFICDSIFNLEVQNEFDFVYDSGCLHHIPPHRRVNYVDLIKNALKSGGYFGLTCFAAGDLDERNGSEITDWDVYRGWSLQGGLAYSEEKLREIFKGFEVIEIRKMEQIEQPNTMFGESFLWTALFKKNLEHHHHHH”, for which the protein production result is on record as “not failed”.

For the sequence “MKNFLETIEDMILIINREGRLLYANTAVPKKLGYPHEELMSMHILTITSAGKMAEGEKILAELFAGKKESLPLSLEKKEGTSIPAKARIWQGKWHNEPCLFAIIKDLSKEERALEHHHHHH”, the protein production entry is “not failed”. For the sequence “MKNIVPPADIILNMLNEKPGADLDLLDFYKGYIRRASIEPSYSEEGFDKGKHINEDLRQEIEIAFLKGLVSLRHNICKKGSTVLIIVPSKSWFDLEHHHHHH”, the protein production entry is reported as “failed”.

For “MKNLNYGIIGLGKFGSVVADELIAGGHTVIVADKDEEALKSIQNPPSYAYILDSTNISALKEAGFHDVEVVIVSIGENVEKSILTLMALKDIGVKNIIAKATSNIHGQILSKLGATKVIYPEKESAKRLVKEFLTKDADYEVFDLSANTIRAIKINIDEKLAGNSLKHVAQNMKVISYKKLNSDWEILPDLETTTVYSGDVVILLGTVKELREFEH”, the protein production entry is “failed”. The same measure for “MKNPVPRIIKTPVIAMYHDDRREELTIEVELSDVKDENITLMMHENSFYIKAFSETVEYLGSFFLDGPVDPEKAVAANNNGMLTIKVPYKEGFTCARFIHVD”: “failed”; for “MKNSEESSSSSEDTNNATDTNTSESQDISVNGPEKVGDVYEIDGGTAKVMAISNKETTVKTGPIQFTVKKVIAAVANEQLPFIDVQIESENTSDEVVRFRPSLAQLATSTGVQIDEPSLLESDRLLDEYVGKVNDSGSIIYVFDNEEDIKDLESIRLRISSPFNEDLKNLGDKLDLKINLEHLEHHHHHH”: “not failed”; for “MKNSNRLIYTDNLEESLEETASLFEHHIKFYTEIIEKDKKVIKTFNKDFKIEHAKEVISKAHLKHSELNAFLIAAPSYGIEAQNALLKILEEPPNNVCFIMFAKSQNHVLATIKSRLIKEDKRQKIPLKPLDLDLSKLDLKDIYAFLKNLDKENFDSRENQRERIESLLESVNRHKIPLNEQELQAFDLAIKANSSYYKLSYNLLPLLLSLLSKKKTP”: “failed”. The same measure for “MKNTELEQLINEKLNSAAISDYAPNGLQVEGKETVQKIVTGVTASQALLDEAVRLGADAVIVHHGYFWKGESPVIRGMKRNRLKTLLANDINLYGWHLPLDAHPELGNNAQLAALLGITVMGEIEPLVPWGELTMPVPGLELASWIEARLGRKPLWCGDTGPEVVQRVAWCTGGGQSFIDSAARFGVDAFITGEVSEQTIHSAREQGLHFYAAGHHATERGGIRALSEWLNENTDLDVTFIDIPNPA”: “not failed”.
